We go through 16 molecules from patent US20250002594A1 (SHANGHAI EPIMAB BIOTHERAPEUTICS, published 2025).

The target in one experiment is T1, recombinant human CD122 (human, UniProt P14784 27-239, limits assumed).
T1 construct: also called IL-2Rβ
T1 sequence (looked up): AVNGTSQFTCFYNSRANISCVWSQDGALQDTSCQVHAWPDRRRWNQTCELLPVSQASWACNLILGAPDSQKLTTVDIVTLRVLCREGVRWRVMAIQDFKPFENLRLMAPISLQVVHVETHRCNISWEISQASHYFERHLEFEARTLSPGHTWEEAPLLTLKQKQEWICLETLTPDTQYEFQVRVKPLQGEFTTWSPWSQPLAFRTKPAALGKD
Kind of experiment: GCI (WAVEsystem). The protocol: (§1) Binding affinity and kinetics constants of humanized CD122/CD132 FIT-Ig were determined using a label-free biosensor on WAVEsystem (Creoptix AG, Switzerland) by grating-coupled interferometry (GCI). Briefly, a PCP WAVEchip (Creoptix AG) was pre-immobilized with goat anti-human IgG Fc antibody to a density of 3830 pg/mm² by amine coupling, and used to capture humanized CD122/CD132 FIT-Ig generated from Example 3.2.1 to a density of ˜90 pg/mm², then exposed to recombinant human/cyno CD122 or CD132 serially diluted (3× dilutions from 200 nM to […] for human CD122, human CD132 and cyno CD132, respectively; and from 1000 nM to 1.37 nM for cyno CD122) in 1X HBS-EP+ buffer (Cytiva, Cat No. BR100669) by injection at 60 μL/min for 250s to assess association, followed by 1200s dissociation. After each round of association and dissociation, WAVEchip surface was regenerated by subject to pH 1.5 Glycine-HCl buffer injection at 60 μL/min for 120s. Sensorgrams were recorded at 25° C., the data were analyzed on WAVEcontrol (Creoptix AG) and double referenced by subtracting the signals from blank injections and the reference channel. A Langmuir 1:1 model was used for data fitting.

For the next experiment, the target named is T2, recombinant human CD132 (human, UniProt P31785 23-262, limits assumed).
T2 construct: also called IL-2Rγ
T2 sequence (looked up): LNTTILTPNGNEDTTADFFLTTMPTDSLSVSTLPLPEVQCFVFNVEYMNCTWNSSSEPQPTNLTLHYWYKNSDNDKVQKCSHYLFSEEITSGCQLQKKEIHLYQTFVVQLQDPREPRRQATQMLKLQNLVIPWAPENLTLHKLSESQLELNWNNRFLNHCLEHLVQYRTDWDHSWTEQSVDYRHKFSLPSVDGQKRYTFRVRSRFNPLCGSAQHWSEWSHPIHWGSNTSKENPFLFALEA
Kind of experiment: GCI (WAVEsystem). Here is the method:
as §1

B1: huFIT2019-86b-17 (bispecific antibody, human IgG1, kappa, L234A L235A)
chain 1: not shown
chain 2: EVQLVQSGAEVKKPGASVKVSCKASGYTFTDYVISWVRQATGQGLEWMGEIYPGDAQTYYNEMFKGRVTMTRDTSISTAYMELSSLRSEDTAVYYCARGSYTYDNYAMDFWGQGTTVTVSSASTKGPSVFPLAPSSKSTSGGTAALGCLVKDYFPEPVTVSWNSGALTSGVHTFPAVLQSSGLYSLSSVVTVPSSSLGTQTYICNVNHKPSNTKVDKKVEPKSC
chain 3: not shown
B1: the binding result with recombinant human CD122 and with recombinant human CD132 was “binds” each time.

B2: huFIT2019-86b-20 (bispecific antibody, human IgG1, kappa, L234A L235A)
chain 1: not shown
chain 2: EVQLVQSGAEVKKPGASVKVSCKASGYTFTDYVISWVRQATGQGLEWMGEIYPGDAQTYYNEMFKGRVTLTADTSISTAYMELSSLRSEDTAVYYCARGSYTYDNYAMDFWGQGTTVTVSSASTKGPSVFPLAPSSKSTSGGTAALGCLVKDYFPEPVTVSWNSGALTSGVHTFPAVLQSSGLYSLSSVVTVPSSSLGTQTYICNVNHKPSNTKVDKKVEPKSC
chain 3: not shown
On to B2, for which the binding result with recombinant human CD122 and in the experiment with recombinant human CD132 was “binds” in each case.

B3: huFIT2019-86b-11 (bispecific antibody, human IgG1, kappa, L234A L235A)
chain 1: not shown
chain 2: EVQLVQSGAEVKKPGASVKVSCKASGYTFTDYVISWVRQATGQGLEWMGEIYPGDAQTYYNEMFKGRVTMTRDTSISTAYMELSSLRSEDTAVYYCARGSYTYDNYAMDFWGQGTTVTVSSASTKGPSVFPLAPSSKSTSGGTAALGCLVKDYFPEPVTVSWNSGALTSGVHTFPAVLQSSGLYSLSSVVTVPSSSLGTQTYICNVNHKPSNTKVDKKVEPKSC
chain 3: not shown
In the case of B3, the binding result with recombinant human CD122 and with recombinant human CD132 was “binds” in each case.

B4: huFIT2019-86b-13 (bispecific antibody, human IgG1, kappa, L234A L235A)
chain 1: not shown
chain 2: EVQLVQSGAEVKKPGASVKVSCKASGYRFSDYVISWVRQATGQGLEWMGEIYPGDAQTYYNEMFKGRVTMTADTSISTAYMELSSLRSEDTAVYYCARGSYTYDNYAMDFWGQGTTVTVSSASTKGPSVFPLAPSSKSTSGGTAALGCLVKDYFPEPVTVSWNSGALTSGVHTFPAVLQSSGLYSLSSVVTVPSSSLGTQTYICNVNHKPSNTKVDKKVEPKSC
chain 3: not shown
For the molecule B4, the binding result in the experiment with recombinant human CD122 and with recombinant human CD132 was “binds” each time.

B5: huFIT2019-86b-12 (bispecific antibody, human IgG1, kappa, L234A L235A)
chain 1: not shown
chain 2: EVQLVQSGAEVKKPGASVKVSCKASGYTFTDYVISWVRQATGQGLEWMGEIYPGDAQTYYNEMFKGRVTMTADTSISTAYMELSSLRSEDTAVYYCARGSYTYDNYAMDFWGQGTTVTVSSASTKGPSVFPLAPSSKSTSGGTAALGCLVKDYFPEPVTVSWNSGALTSGVHTFPAVLQSSGLYSLSSVVTVPSSSLGTQTYICNVNHKPSNTKVDKKVEPKSC
chain 3: not shown
In the case of B5, the binding result with recombinant human CD122 and with recombinant human CD132 was “binds” each time.

B6: huFIT2019-86b-24 (bispecific antibody, human IgG1, kappa, L234A L235A)
chain 1: not shown
chain 2: EVQLVQSGAEVKKPGASVKVSCKASGYTFTDYVISWVRQATGQGLEWMGEIYPGDAQTYYNEMFKGRVTMTADTSISTAYMELSSLRSEDTAVYYCARGSYTYDNYAMDFWGQGTTVTVSSASTKGPSVFPLAPSSKSTSGGTAALGCLVKDYFPEPVTVSWNSGALTSGVHTFPAVLQSSGLYSLSSVVTVPSSSLGTQTYICNVNHKPSNTKVDKKVEPKSC
chain 3: not shown
B6: the binding result with recombinant human CD122 and in the experiment with recombinant human CD132 was “binds” throughout.

B7: huFIT2019-86b-22 (bispecific antibody, human IgG1, kappa, L234A L235A)
chain 1: not shown
chain 2: EVQLVQSGAEVKKPGASVKVSCKASGYRFSDYVISWVKQATGQGLEWIGEIYPGDAQTYYNEMFKGRATLTADKSISTAYMELSSLRSEDTAVYFCARGSYTYDNYAMDFWGQGTTVTVSSASTKGPSVFPLAPSSKSTSGGTAALGCLVKDYFPEPVTVSWNSGALTSGVHTFPAVLQSSGLYSLSSVVTVPSSSLGTQTYICNVNHKPSNTKVDKKVEPKSC
chain 3: not shown
For the molecule B7, the binding result with recombinant human CD122 and with recombinant human CD132 was “binds” throughout.

B8: huFIT2019-86b-21 (bispecific antibody, human IgG1, kappa, L234A L235A)
chain 1: not shown
chain 2: EVQLVQSGAEVKKPGASVKVSCKASGYTFTDYVISWVKQATGQGLEWIGEIYPGDAQTYYNEMFKGRATLTADKSISTAYMELSSLRSEDTAVYYCARGSYTYDNYAMDFWGQGTTVTVSSASTKGPSVFPLAPSSKSTSGGTAALGCLVKDYFPEPVTVSWNSGALTSGVHTFPAVLQSSGLYSLSSVVTVPSSSLGTQTYICNVNHKPSNTKVDKKVEPKSC
chain 3: not shown
For the molecule B8, the binding result with recombinant human CD122 and with recombinant human CD132 was “binds” each time.

B9: huFIT2019-86b-14 (bispecific antibody, human IgG1, kappa, L234A L235A)
chain 1: not shown
chain 2: EVQLVQSGAEVKKPGASVKVSCKASGYTFTDYVISWVRQATGQGLEWMGEIYPGDAQTYYNEMFKGRVTLTADTSISTAYMELSSLRSEDTAVYYCARGSYTYDNYAMDFWGQGTTVTVSSASTKGPSVFPLAPSSKSTSGGTAALGCLVKDYFPEPVTVSWNSGALTSGVHTFPAVLQSSGLYSLSSVVTVPSSSLGTQTYICNVNHKPSNTKVDKKVEPKSC
chain 3: not shown
As for B9, the binding result with recombinant human CD122 and with recombinant human CD132 was “binds” in each case.

B10: huFIT2019-86b-16 (bispecific antibody, human IgG1, kappa, L234A L235A)
chain 1: not shown
chain 2: EVQLVQSGAEVKKPGASVKVSCKASGYRFSDYVISWVKQATGQGLEWIGEIYPGDAQTYYNEMFKGRATLTADKSISTAYMELSSLRSEDTAVYFCARGSYTYDNYAMDFWGQGTTVTVSSASTKGPSVFPLAPSSKSTSGGTAALGCLVKDYFPEPVTVSWNSGALTSGVHTFPAVLQSSGLYSLSSVVTVPSSSLGTQTYICNVNHKPSNTKVDKKVEPKSC
chain 3: not shown
On to B10, for which the binding result with recombinant human CD122 and in the experiment with recombinant human CD132 was “binds” each time.

B11: huFIT2019-86b-19 (bispecific antibody, human IgG1, kappa, L234A L235A)
chain 1: not shown
chain 2: EVQLVQSGAEVKKPGASVKVSCKASGYRFSDYVISWVRQATGQGLEWMGEIYPGDAQTYYNEMFKGRVTMTADTSISTAYMELSSLRSEDTAVYYCARGSYTYDNYAMDFWGQGTTVTVSSASTKGPSVFPLAPSSKSTSGGTAALGCLVKDYFPEPVTVSWNSGALTSGVHTFPAVLQSSGLYSLSSVVTVPSSSLGTQTYICNVNHKPSNTKVDKKVEPKSC
chain 3: not shown
For the molecule B11, the binding result in the experiment with recombinant human CD122 and with recombinant human CD132 was “binds” throughout.

B12: huFIT2019-86b-26 (bispecific antibody, human IgG1, kappa, L234A L235A)
chain 1: not shown
chain 2: EVQLVQSGAEVKKPGASVKVSCKASGYTFTDYVISWVRQATGQGLEWMGEIYPGDAQTYYNEMFKGRVTLTADTSISTAYMELSSLRSEDTAVYYCARGSYTYDNYAMDFWGQGTTVTVSSASTKGPSVFPLAPSSKSTSGGTAALGCLVKDYFPEPVTVSWNSGALTSGVHTFPAVLQSSGLYSLSSVVTVPSSSLGTQTYICNVNHKPSNTKVDKKVEPKSC
chain 3: not shown
B12: the binding result with recombinant human CD122 and in the experiment with recombinant human CD132 was “binds” each time.

B13: huFIT2019-86b-15 (bispecific antibody, human IgG1, kappa, L234A L235A)
chain 1: not shown
chain 2: EVQLVQSGAEVKKPGASVKVSCKASGYTFTDYVISWVKQATGQGLEWIGEIYPGDAQTYYNEMFKGRATLTADKSISTAYMELSSLRSEDTAVYYCARGSYTYDNYAMDFWGQGTTVTVSSASTKGPSVFPLAPSSKSTSGGTAALGCLVKDYFPEPVTVSWNSGALTSGVHTFPAVLQSSGLYSLSSVVTVPSSSLGTQTYICNVNHKPSNTKVDKKVEPKSC
chain 3: not shown
With B13, the binding result in the experiment with recombinant human CD122 and with recombinant human CD132 was “binds” in each case.

B14: huFIT2019-86b-25 (bispecific antibody, human IgG1, kappa, L234A L235A)
chain 1: not shown
chain 2: EVQLVQSGAEVKKPGASVKVSCKASGYRFSDYVISWVRQATGQGLEWMGEIYPGDAQTYYNEMFKGRVTMTADTSISTAYMELSSLRSEDTAVYYCARGSYTYDNYAMDFWGQGTTVTVSSASTKGPSVFPLAPSSKSTSGGTAALGCLVKDYFPEPVTVSWNSGALTSGVHTFPAVLQSSGLYSLSSVVTVPSSSLGTQTYICNVNHKPSNTKVDKKVEPKSC
chain 3: not shown
As to B14, the binding result with recombinant human CD122 and with recombinant human CD132 was “binds” throughout.

B15: huFIT2019-86b-23 (bispecific antibody, human IgG1, kappa, L234A L235A)
chain 1: not shown
chain 2: EVQLVQSGAEVKKPGASVKVSCKASGYTFTDYVISWVRQATGQGLEWMGEIYPGDAQTYYNEMFKGRVTMTRDTSISTAYMELSSLRSEDTAVYYCARGSYTYDNYAMDFWGQGTTVTVSSASTKGPSVFPLAPSSKSTSGGTAALGCLVKDYFPEPVTVSWNSGALTSGVHTFPAVLQSSGLYSLSSVVTVPSSSLGTQTYICNVNHKPSNTKVDKKVEPKSC
chain 3: not shown
Consider B15, for which the binding result with recombinant human CD122 and in the experiment with recombinant human CD132 was “binds” throughout.

B16: huFIT2019-86b-18 (bispecific antibody, human IgG1, kappa, L234A L235A)
chain 1: not shown
chain 2: EVQLVQSGAEVKKPGASVKVSCKASGYTFTDYVISWVRQATGQGLEWMGEIYPGDAQTYYNEMFKGRVTMTADTSISTAYMELSSLRSEDTAVYYCARGSYTYDNYAMDFWGQGTTVTVSSASTKGPSVFPLAPSSKSTSGGTAALGCLVKDYFPEPVTVSWNSGALTSGVHTFPAVLQSSGLYSLSSVVTVPSSSLGTQTYICNVNHKPSNTKVDKKVEPKSC
chain 3: not shown
Consider B16, for which the binding result with recombinant human CD122 and in the experiment with recombinant human CD132 was “binds” in each case.
